In patent US20200030425 (published 2020):
“And” between values parts separate entries of the source, which are not always exact repeats. Equal values may be shown once.

Target: T1, human ICOS-Fc (human)
T1 chain: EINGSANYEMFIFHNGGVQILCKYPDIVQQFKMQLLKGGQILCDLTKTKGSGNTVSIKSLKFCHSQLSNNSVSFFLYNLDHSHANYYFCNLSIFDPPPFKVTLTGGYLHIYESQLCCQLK
Experiment: SPR 37C

B1: ICOS.33 IgG1f S267E Fab (antibody, V domains shown)
VH: EVQLVESGGGLVKPGGSLRLSCAASGFTFSDYFMHWVRQAPGKGLEWVGVIDTKSFNYATYYSDLVKGRFTISRDDSKNTLYLQMNSLKTEDTAVYYCTATIAVPYYFDYWGQGTLVTVSS
VL: DIQMTQSPSSLSASVGDRVTITCQASQDISNYLSWYQQKPGKAPKLLIYYTNLLAEGVPSRFSGSGSGTDFTFTISSLQPEDIATYYCQQYYNYRTFGPGTKVDIK
Q: How did the Kd turn out when B1 was run?
A: Its Kd is 52 nM and 65 nM.
